Test results as given in PMC4260089 (The Plant Journal, 2014).
Each block holds one binder with its values, some of them ahead of it.

Assays:
[1] = molecular target: T1, SERK3^250–615 (entire cytoplasmic portion, JM–KD–CT) (Arabidopsis thaliana), Q94F62; assay: SEC; conditions: remark: other sources report otherwise
T1 chain: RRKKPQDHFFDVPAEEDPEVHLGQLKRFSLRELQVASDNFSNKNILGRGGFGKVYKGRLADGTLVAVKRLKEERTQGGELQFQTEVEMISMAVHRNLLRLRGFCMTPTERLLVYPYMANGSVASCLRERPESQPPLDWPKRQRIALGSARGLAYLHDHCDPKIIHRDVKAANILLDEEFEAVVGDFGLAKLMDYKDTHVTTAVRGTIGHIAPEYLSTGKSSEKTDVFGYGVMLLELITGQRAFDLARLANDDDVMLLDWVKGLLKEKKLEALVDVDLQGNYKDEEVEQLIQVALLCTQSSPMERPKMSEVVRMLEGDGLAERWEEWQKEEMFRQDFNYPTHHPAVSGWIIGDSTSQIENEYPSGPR

SEC = molecular target: the molecule itself; assay: SEC

stoichiometry N [1]: 2
B1: SERK3^250–615 (entire cytoplasmic portion, JM–KD–CT), Q94F62 250-615 (domain or fragment)
chain: T1 chain

B2: SERK2^281–628 (cytoplasmic portion, JM–KD–CT) (domain or fragment, Arabidopsis thaliana, UniProt Q9XIC7 281-628, looked up)
chain: EDPEVHLGQLKRFSLRELQVATDSFSNKNILGRGGFGKVYKGRLADGTLVAVKRLKEERTPGGELQFQTEVEMISMAVHRNLLRLRGFCMTPTERLLVYPYMANGSVASCLRERPPSQLPLAWSIRQQIALGSARGLSYLHDHCDPKIIHRDVKAANILLDEEFEAVVGDFGLARLMDYKDTHVTTAVRGTIGHIAPEYLSTGKSSEKTDVFGYGIMLLELITGQRAFDLARLANDDDVMLLDWVKGLLKEKKLEMLVDPDLQSNYTEAEVEQLIQVALLCTQSSPMERPKMSEVVRMLEGDGLAEKWDEWQKVEVLRQEVELSSHPTSDWILDSTDNLHAMELSGPR
stoichiometry N (SEC): 2
